Here are results for one substance from publication doi:10.1101/2023.06.06.543845.

This experiment has as its target Mycobacterium thermoresistibile NrdI (Mycobacterium thermoresistibile). Nature of the experiment: cryo-EM structure.

Substance “Mycobacterium thermoresistibile NrdF2 (enzyme)” registered a stoichiometry N (NrdF2 per NrdI) of 2.
